Source: patent US20200283487A1 (UNIVERSITY OF SOUTHAMPTON, published 2020)

Biological target: T1, BSA (UniProt P02769 25-607)
T1 construct: Negative control analyte on the Biacore chip; also called BSA negative control
Experiment: SPR (Biacore), rfhSP-A immobilised to ~700 RU, BSA as soluble analyte

T1 sequence (P02769 25-607 limits assumed): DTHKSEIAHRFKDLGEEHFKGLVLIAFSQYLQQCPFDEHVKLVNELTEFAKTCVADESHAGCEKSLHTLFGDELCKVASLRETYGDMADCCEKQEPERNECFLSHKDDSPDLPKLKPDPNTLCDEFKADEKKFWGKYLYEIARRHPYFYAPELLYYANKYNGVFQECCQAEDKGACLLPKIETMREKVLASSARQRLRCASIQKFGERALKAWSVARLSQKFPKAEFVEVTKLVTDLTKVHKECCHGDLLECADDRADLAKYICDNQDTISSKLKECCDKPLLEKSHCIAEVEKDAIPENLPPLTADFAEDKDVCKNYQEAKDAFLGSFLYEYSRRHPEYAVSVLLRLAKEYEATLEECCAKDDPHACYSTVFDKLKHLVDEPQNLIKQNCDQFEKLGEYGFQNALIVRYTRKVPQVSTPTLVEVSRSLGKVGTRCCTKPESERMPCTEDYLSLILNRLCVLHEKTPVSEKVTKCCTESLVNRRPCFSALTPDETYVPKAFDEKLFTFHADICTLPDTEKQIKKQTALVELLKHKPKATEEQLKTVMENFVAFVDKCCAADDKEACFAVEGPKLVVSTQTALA

B1: rfhSP-A (recombinant fragment of human surfactant protein A; truncated SP-A polypeptide) (other)
chain: not shown
notes: C-type lectin (collectin) fragment; also called rhfSP-A; trimeric rfhSP-A
B1: no binding.
